For assay [1], the target named is FITC-labeled AC413(6–25) with Y25P mutation. Nature of the assay: fluorescence anisotropy, FITC-peptide probe binding. The note with it: anisotropy at the highest receptor concentration shown, log [RAMP1 ECD-CTR ECD fusion] M = -6; parent: est. 0.19; read off a plot. (In general: Fluorescence polarisation rises when a labelled molecule tumbles more slowly, as on binding a larger partner.)

In assay [2] the target is FITC-labeled salmon calcitonin (sCT) fragment(22–32). The description is as above. The note with it: anisotropy at the highest receptor concentration shown for this mutant, read off a plot.
For assay [3], the target named is amylin receptor 1 extracellular domain, wild type (hRAMP1.24–111-(GSA)3-hCTR.34–141-H6) (human) (UniProt O60894). Nature of the assay: competition binding assay; non-labeled sCT(22–32) as competitor on amylin receptor 1 ECDs (Figure S3); probe and conditions not shown.
For assay [4], the target named is amylin receptor 1 ECD ECD (Homo sapiens) (UniProt P30988). The settings on record: cited from earlier work.
Setting [5] is: log [RAMP1 ECD-CTR ECD fusion] M = -5.5, parent: est. 0.19.

salmon calcitonin fragment sCT(22-32) 22-32, sequence (P01263 whole entry, looked up, the tested form may be a part): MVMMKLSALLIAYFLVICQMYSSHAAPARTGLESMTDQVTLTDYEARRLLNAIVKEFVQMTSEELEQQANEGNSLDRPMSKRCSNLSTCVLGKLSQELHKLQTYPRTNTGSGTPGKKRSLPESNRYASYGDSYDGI

In the case of “amylin receptor 1 extracellular domain, wild type (hRAMP1.24–111-(GSA)3-hCTR.34–141-H6) (from UniProt O60894) D101A”, the response in assay [1] came to 0.041; in assay [2] (log [RAMP1 ECD-CTR ECD fusion] M = -6, parent: est. 0.18) it was 0.035.

As for “amylin receptor 1 extracellular domain, wild type (hRAMP1.24–111-(GSA)3-hCTR.34–141-H6) (from UniProt O60894) D101E”, the response in assay [1] turned out to be 0.046; in assay [2] (setting [5]), 0.035.

Turning to “amylin receptor 1 extracellular domain, wild type (hRAMP1.24–111-(GSA)3-hCTR.34–141-H6) (from UniProt O60894) N135A”, the results for the response in assay [1] and in assay [2] (setting [5]) were 0.1 and 0.081, respectively.

Consider “amylin receptor 1 extracellular domain, wild type (hRAMP1.24–111-(GSA)3-hCTR.34–141-H6) (from UniProt O60894) N135D”, for which the response is 0.056 in assay [1] and 0.052 in assay [2] (setting [5]).

What is called Ki is a dissociation constant, usually derived from enzyme kinetics or from competition with a known ligand. The substance “non-labeled salmon calcitonin (sCT) (22–32) fragment (peptide)” displayed a Ki in assay [3] of 0.891 µM.

As to “salmon calcitonin fragment sCT(22-32) 22-32 (from UniProt P01263)”, in assay [4], the Ki is 2.5 µM.

Values taken from PMC12292835, “Amylin Receptor 1 Mutagenesis Revealed a Potential Role of Calcitonin Serine 29 in Receptor Interaction” (Biomedicines, 2025).
